± gives the uncertainty stated by the source.

A short description of this data set: abundance fitness (aPCA) (normalised: wild type 0, dead -1); higher = more abundant; growth selection in yeast, the domain comes from the species named. Conditions: Homo sapiens.
In turn, “DnaJ homolog subfamily B member 1 Q7Y, P25685” displayed an abundance fitness of 0.022 ± 0.13.
For “DnaJ homolog subfamily B member 1 Q27A, P25685” the value was -0.15 ± 0.11; for “DnaJ homolog subfamily B member 1 Q27C, P25685”, 0.012 ± 0.14; for “DnaJ homolog subfamily B member 1 Q27D, P25685”, 0.003 ± 0.15.
For “DnaJ homolog subfamily B member 1 Q27E, P25685” the value was -0.231 ± 0.36; for “DnaJ homolog subfamily B member 1 Q27F, P25685”, -0.115 ± 0.13; for “DnaJ homolog subfamily B member 1 Q27G, P25685”, -0.277 ± 0.093.
On to “DnaJ homolog subfamily B member 1 Q27H, P25685”, for which the abundance fitness is -0.168 ± 0.18.
As for “DnaJ homolog subfamily B member 1 Q27I, P25685”, the figure is -0.057 ± 0.12; as for “DnaJ homolog subfamily B member 1 Q27K, P25685”, -0.021 ± 0.17.
For “DnaJ homolog subfamily B member 1 Q27L, P25685” the value was -0.121 ± 0.094; for “DnaJ homolog subfamily B member 1 Q27M, P25685”, -0.054 ± 0.14.
For “DnaJ homolog subfamily B member 1 Q27N, P25685” the value was -0.14 ± 0.12.
The substance “DnaJ homolog subfamily B member 1 Q27R, P25685” had an abundance fitness of -0.215 ± 0.066.
With “DnaJ homolog subfamily B member 1 Q27T, P25685”, the abundance fitness is -0.266 ± 0.12.
As for “DnaJ homolog subfamily B member 1 Q27W, P25685”, the figure is -0.064 ± 0.098; as for “DnaJ homolog subfamily B member 1 Q27Y, P25685”, -0.056 ± 0.28; as for “DnaJ homolog subfamily B member 1 R13A, P25685”, -0.148 ± 0.081.
For “DnaJ homolog subfamily B member 1 R13C, P25685” the value was -0.262 ± 0.12; for “DnaJ homolog subfamily B member 1 R13D, P25685”, -0.117 ± 0.22.
As for “DnaJ homolog subfamily B member 1 R13E, P25685”, the figure is -0.142 ± 0.089.
Substance “DnaJ homolog subfamily B member 1 R13F, P25685” showed an abundance fitness of -0.15 ± 0.1.
For “DnaJ homolog subfamily B member 1 R13G, P25685” the value was -0.305 ± 0.064; for “DnaJ homolog subfamily B member 1 R13H, P25685”, -0.191 ± 0.16; for “DnaJ homolog subfamily B member 1 R13I, P25685”, -0.221 ± 0.15.
As for “DnaJ homolog subfamily B member 1 R13K, P25685”, the figure is -0.097 ± 0.089.
“DnaJ homolog subfamily B member 1 R13L, P25685” returned an abundance fitness of -0.191 ± 0.066.
As for “DnaJ homolog subfamily B member 1 R13M, P25685”, the figure is -0.219 ± 0.092; as for “DnaJ homolog subfamily B member 1 R13N, P25685”, -0.091 ± 0.11.
Regarding “DnaJ homolog subfamily B member 1 R13P, P25685”, the abundance fitness was -0.177 ± 0.088.
For “DnaJ homolog subfamily B member 1 R13Q, P25685” the value was 0.048 ± 0.2; for “DnaJ homolog subfamily B member 1 R13S, P25685”, -0.182 ± 0.056; for “DnaJ homolog subfamily B member 1 R13T, P25685”, -0.138 ± 0.089.
For “DnaJ homolog subfamily B member 1 R13V, P25685” the value was -0.157 ± 0.065; for “DnaJ homolog subfamily B member 1 R13W, P25685”, -0.434 ± 0.08.
For “DnaJ homolog subfamily B member 1 R13Y, P25685” the value was -0.279 ± 0.091; for “DnaJ homolog subfamily B member 1 R25A, P25685”, 0.011 ± 0.079.
“DnaJ homolog subfamily B member 1 R25C, P25685” gave an abundance fitness of -0.22 ± 0.14.
As for “DnaJ homolog subfamily B member 1 R25D, P25685”, the figure is -0.15 ± 0.13; as for “DnaJ homolog subfamily B member 1 R25E, P25685”, 0.173 ± 0.082.
Substance “DnaJ homolog subfamily B member 1 R25F, P25685” came in with an abundance fitness of -0.199 ± 0.12.
As for “DnaJ homolog subfamily B member 1 R25G, P25685”, the figure is -0.007 ± 0.12.
For “DnaJ homolog subfamily B member 1 R25H, P25685”, the abundance fitness was -0.047 ± 0.11.
In the case of “DnaJ homolog subfamily B member 1 R25I, P25685”, the abundance fitness was determined as 0.008 ± 0.13.
As for “DnaJ homolog subfamily B member 1 R25K, P25685”, the figure is -0.022 ± 0.057; as for “DnaJ homolog subfamily B member 1 R25M, P25685”, -0.078 ± 0.12; as for “DnaJ homolog subfamily B member 1 R25N, P25685”, -0.144 ± 0.29.
For the substance “DnaJ homolog subfamily B member 1 R25P, P25685”, the abundance fitness was -0.462 ± 0.12.
The substance “DnaJ homolog subfamily B member 1 R25S, P25685” gave an abundance fitness of 0.018 ± 0.076.
For “DnaJ homolog subfamily B member 1 R25T, P25685” the value was -0.181 ± 0.11.
“DnaJ homolog subfamily B member 1 R25V, P25685”: the abundance fitness amounted to 0.003 ± 0.062.
For “DnaJ homolog subfamily B member 1 R25W, P25685”, the abundance fitness was -0.116 ± 0.092.
For “DnaJ homolog subfamily B member 1 R26A, P25685” the value was 0.056 ± 0.18.
As for “DnaJ homolog subfamily B member 1 R26C, P25685”, the figure is 0.064 ± 0.11.
As for “DnaJ homolog subfamily B member 1 R26D, P25685”, the figure is 0.327 ± 0.25; as for “DnaJ homolog subfamily B member 1 R26F, P25685”, -0.032 ± 0.094.
On to “DnaJ homolog subfamily B member 1 R26G, P25685”, for which the abundance fitness is -0.117 ± 0.094.
As for “DnaJ homolog subfamily B member 1 R26H, P25685”, the figure is 0.163 ± 0.11; as for “DnaJ homolog subfamily B member 1 R26I, P25685”, 0.071 ± 0.16.
For “DnaJ homolog subfamily B member 1 R26K, P25685” the value was 0.052 ± 0.18; for “DnaJ homolog subfamily B member 1 R26L, P25685”, 0.068 ± 0.075; for “DnaJ homolog subfamily B member 1 R26M, P25685”, -0.121 ± 0.13.
As for “DnaJ homolog subfamily B member 1 R26N, P25685”, the figure is 0.102 ± 0.17.
On to “DnaJ homolog subfamily B member 1 R26P, P25685”, for which the abundance fitness was -0.628 ± 0.1.
As for “DnaJ homolog subfamily B member 1 R26Q, P25685”, the figure is -0.019 ± 0.22.
As for “DnaJ homolog subfamily B member 1 R26S, P25685”, the figure is 0.064 ± 0.068.

For the origin of these results see the Human Domainome abundance scans (Beltran et al. 2025).
